Measurements from patent publication US20130101549A1 (Biogen, published 2013).

B1: BIIB67F11 Fab (Fab, V domains shown)
VH: EVQLLESGGGLVQPGGSLRLSCAASGFTFSNYYMMWVRQAPGKGLEWVSVIGSSGGMTNYADSVKGRFTISRDNSKNTLYLQMNSLRAEDTAVYYCARGYPTGYYDSSGWVYSYYGIDVWGQGTTVTVSS
VL: DIQMTQSPSSLSASIGDRVTITCQASQDTDNRLHWYQQKSGRAPKLLIYDAVNLKRGVPSRFRGSGSGTNFILTITNLQPEDMATYFCQHSDGLSLAFGGGTKLEIK
notes: Soluble human Fab from a naive phagemid Fab library
B2: BIIB65C10 Fab (Fab, V domains shown)
VH: EVQLLESGGGLVQPGGSLRLSCAASGFTFSYYPMMWVRQAPGKGLEWVSSIWPSGGFTKYADSVKGRFTISRDNSKNTLYLQMNSLRAEDTATYYCARVSSSSWYGYLYWGQGTLVTVSS
VL: not shown
notes: as for B1
B3: BIIB69A09 Fab (Fab, V domains shown)
VH: EVQLLESGGGLVQPGGSLRLSCAASGFTFSRYNMWWVRQAPGKGLEWVSVIRSSGGYTGYADSVKGRFTISRDNSKNTLYLQMNSLRAEDTAVYYCARWNSGYSYWDYYYGMDVWGQGTTVTVSS
VL: DIQMTQSPSSLSASVGDRVTITCRASQSISSYLNWYQQKPGKAPKLLIYAASSLQSGVPSRFSGSGSGTDFTLTISSLQPEDFATYYCQQFNTYPITFGPGTKVDIK
notes: as for B1
B4: BIIB67F10 Fab (Fab, V domains shown)
VH: EVQLLESGGGLVQPGGSLRLSCAASGFTFSPYMMVWVRQAPGKGLEWVSWISPSGGYTFYADSVKGRFTISRDNSKNTLYLQMNSLRAEDTAVYYCAYGTYPLTYWGQGTLVTVSS
VL: QSELTQTPSVSVSPGQTASITCSGDKLGDKYVSWFQLKPGQSPLLVIYQDSKWPSGIPERFSGSNSGNTATLTISGTQATDEADYYCQVWDISHVVFGGGTKLTVL
notes: as for B1
B5: BIIB66C01 Fab (Fab, V domains shown)
VH: EVQLLESGGGLVQPGGSLRLSCAASGFTFSWYSMSWVRQAPGKGLEWVSSISSSGGPTHYADSVKGRFTISRDNSKNTLYLQMNSLRAEDTAVYYCARDSSYSGTSWGQGTLVTVSS
VL: QYELTQPPSVSGTPGQRVTISCSGSSSNIGSEYVYWFQQLPGTAPRLLIYRNDQRPSGVPDRFSGSKSGTSASLAISGLRSEDETDYYCTTWDDSLSGPVFGGGTKLTVL
notes: as for B1
B6: BIIB66A12 Fab (Fab, V domains shown)
VH: EVQLLESGGGLVQPGGSLRLSCAASGFTFSMYSMQWVRQAPGKGLEWVSVIGSSGGQTGYADSVKGRFTISRDNSKNTLYLQMNSLRAEDTAVYYCARVRDYYGSGSYYLDPWGQGTLVTVSS
VL: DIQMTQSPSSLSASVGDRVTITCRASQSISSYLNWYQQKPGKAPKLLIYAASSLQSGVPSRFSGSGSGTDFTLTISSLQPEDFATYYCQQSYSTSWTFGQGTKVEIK
notes: as for B1
B7: BIIB65H09 Fab (Fab, V domains shown)
VH: EVQLLESGGGLVQPGGSLRLSCAASGFTFSWYSMWWVRQAPGKGLEWVSSIVSSGGQTRYADSVKGRFTISRDNSKNTLYLQMNSLRAEDTAVYYCARVKGYYYYIDVWGKGTTVTVSS
VL: DIQMTQSPGTLSLSPGERATLSCRASQSVDSSYLSWYQQKPGQAPRLLIYGASTRATGIPARFSGSGSGTDFTLTVSRLEPEDFAVYYCQQHGYSSRTFGQGTKVEIK
notes: as for B1
B8: BIIB65B03 Fab (Fab, V domains shown)
VH: EVQLLESGGGLVQPGGSLRLSCAASGFTFSWYRMNWVRQAPGKGLEWVSSIYSSGGPTNYADSVKGRFTISRDNSQNTLYLQMNSLRAEDTAVYYCTREKPDYYDSSGYLDYWGQGTLVTVSS
VL: DIQMTQSPGTLSLSPGERSTLSCRASQSVSSSYLAWYQQKPGQAPRLLIYGASSRATGIPDRFSGSGSGTDFTLTISRLEPEDFGVYYCHQYGRPPVFGPGTKVDIK
notes: as for B1

How the values were obtained:
[1] = molecular target: T1, human HER2/ErbB2 on cells (human, UniProt P04626 23-1255); assay: flow cytometry on CHO cells expressing human HER2
T1 construct: whole, on cells; also called hHER2/ErbB2; wild type HER2/ErbB
Method: CHO cells (Chinese Hamster Ovary cells) stably transfected with hHER2 expression vector and selected in G418 containing medium. G418 resistant clones were pooled and split 24 hours prior to the setup of the assay to obtain 70% confluent monolayer. Routinely, CHO cell line was maintained within 20 passages. Cells were lifted with cell dissociation buffer (Gibco catalog #13151-014), counted, washed and adjusted to 1×10⁶ cells/ml and one ml of cells were then added to each tube (12×75 mm tube Falcon catalog #352054). Cells were pelleted and supernatant removed by centrifugation at 1200 rpm for 5 min and 100 μl of diluted antibodies were then added to the cell pellet. Purified Fabs were tested at a starting concentration of either 210 or 60 μg/ml with 1:3 dilutions in FACS buffer, down to 0.001 μg/ml. FACS buffer used throughout the assay was PBS (without Ca^{+±}/Mg^{+±}) containing 1% BSA (Sigma catalog #A-7906) and 0.1% Sodium Azide (Sigma catalog #S2002). Samples were allowed to incubate on ice for 1 hour and 15 minutes then were washed with 2 ml FACS buffer and centrifuged at 1200 rpm for 5 minutes at 4° C. The supernatant was aspirated and 100 μl of the secondary detection antibody was added to each corresponding tube in FACS buffer. Samples were then incubated for 30 minutes on ice, in the dark. Cells were washed as described above, then, re-suspended in 250 μl FACS buffer per tube/sample.
A full titration was performed on MCF7 and SKBR3 tumor cell lines, and human Her2-CHO and murine Her2-CHO cell lines in order to calculate an approximate EC50 (data not shown, see summary in Table 1).

EGFR on MDA-MB-468 cells = molecular target: T2, EGFR on MDA-MB-468 cells (UniProt P00533 25-1210, limits assumed); assay: FACS on MDA-MB-468 cells (EGFR+, HER2-)
T2 construct: whole, on cells; also called MDA-MB-468 tumor cell line (EGFR+, HER2-)

murine HER2 on CHO cells = molecular target: T3, murine HER2 on CHO cells (mouse, UniProt P70424 23-1256); assay: FACS on CHO cells expressing murine HER2
T3 construct: whole, on cells; also called mHER2/ErbB2; murine Her2-CHO

Her2-Fc D1-D2 (MR067) = molecular target: T4, Her2-Fc D1-D2 (MR067); assay: ELISA, HER2-Fc construct captured by anti-huFc, Fab from 1 ug/ml in 5-fold steps, HRP anti-kappa/lambda
T4 construct: also called ErbB2-Fc Domains 1-2
T4 chain: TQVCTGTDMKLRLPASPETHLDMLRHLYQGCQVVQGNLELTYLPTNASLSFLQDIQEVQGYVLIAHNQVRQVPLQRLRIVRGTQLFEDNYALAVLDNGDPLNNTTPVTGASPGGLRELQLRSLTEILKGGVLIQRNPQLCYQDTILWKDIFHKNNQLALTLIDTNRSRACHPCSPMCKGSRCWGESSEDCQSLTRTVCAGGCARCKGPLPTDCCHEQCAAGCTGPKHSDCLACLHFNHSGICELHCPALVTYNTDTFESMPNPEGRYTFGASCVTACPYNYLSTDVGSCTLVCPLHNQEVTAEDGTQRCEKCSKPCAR
Method: (§1) Nunc Maxisorp ELISA plates were coated with 5 ug/ml rabbit pAbs anti-human Fc gamma in PBS overnight at 4 degrees. Plates were washed one time with PBST (PBS, 0.05% tween 20) and blocked with 1% BSA in PBS for one hour at room temperature. Plates were washed one time with PBST and incubated with 1 ug/ml HER2-Fc fusion protein for one hour. Plates were washed three times with PBST and dilutions of Fab (four 5-fold serial dilutions, starting at 1 ug/ml) in block were added and incubated for ninety minutes. Plates were washed three times with PBST and incubated with 1:2,000 HRP-labelled goat anti-human kappa (Southern Biotech cat#2060-05) and HRP-labelled goat anti-human lambda (Southern Biotech cat#2070-05) in block for one hour at room temperature. Plates were washed three times with PBST, developed with TMB solution for 5 minutes, and stopped with equal volume 1 N H₂SO₄. Absorbance values were read at 450 nm.

[2] = molecular target: T5, Her2-Fc D1-D2-D3-D4 (MR069); assay: as above
T5 construct: made in house, kept apart from the R&D Systems HER2-Fc; also called ErbB2-Fc full length ECD
Method: as §1

Her2-Fc D1-D2-D3 (MR068) = molecular target: T6, Her2-Fc D1-D2-D3 (MR068); assay: as above
T6 construct: also called ErbB2-Fc Domains 1-3
Method: as §1

Her2-Fc D1 (MR066) = molecular target: T7, Her2-Fc D1 (MR066); assay: as above
T7 construct: also called ErbB2-Fc Domain 1
T7 chain: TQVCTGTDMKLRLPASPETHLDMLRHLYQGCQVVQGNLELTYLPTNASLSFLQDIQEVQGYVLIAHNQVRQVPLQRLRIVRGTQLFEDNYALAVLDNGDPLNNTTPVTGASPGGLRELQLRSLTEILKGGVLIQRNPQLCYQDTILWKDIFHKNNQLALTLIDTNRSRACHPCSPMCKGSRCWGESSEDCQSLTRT
Method: as §1

| Binder | EC50 [1] | binding result (EGFR on MDA-MB-468 cells) | binding result (murine HER2 on CHO cells) | binding result (Her2-Fc D1-D2 (MR067)) | binding result [2] | binding result (Her2-Fc D1-D2-D3 (MR068)) | binding result (Her2-Fc D1 (MR066)) |
| --- | --- | --- | --- | --- | --- | --- | --- |
| B1 | 7 nM | no binding | no binding | binds | binds | binds | binds |
| B2 | 6 nM | no binding | no binding | binds | binds | binds | no binding (tested: 1 ug/ml) |
| B3 | 2 nM | no binding | no binding | binds | binds | binds | binds |
| B4 | 2 nM | no binding | no binding | binds | binds | binds | binds |
| B5 | 12 nM | no binding | no binding | no binding (tested: 1 ug/ml) | binds | binds | no binding (tested: 1 ug/ml) |
| B6 | 60 nM | no binding | no binding | no binding (tested: 1 ug/ml) | binds | binds | no binding (tested: 1 ug/ml) |
| B7 | 20 nM | no binding | no binding | no binding (tested: 1 ug/ml) | binds | binds | no binding (tested: 1 ug/ml) |
| B8 | 15 nM | no binding | no binding | no binding (tested: 1 ug/ml) | binds | binds | no binding (tested: 1 ug/ml) |
